The values below come from article PMC12422955.

This assay addresses recombinant full-length NOE1–mScarlet-His (rat) (UniProt Q62609). Nature of the assay: SEC; FSEC, Superose 6 calibrated with mass markers; 5 nM full-length NOE1–mScarlet with 5–150 nM GluA4, or 1 nM with 1–100 nM CP-AMPARs; mScarlet fluorescence. (In general: Size exclusion chromatography separates by hydrodynamic size, large species first.)

recombinant full-length NOE1–mScarlet-His (rat), sequence (Q62609 25-485): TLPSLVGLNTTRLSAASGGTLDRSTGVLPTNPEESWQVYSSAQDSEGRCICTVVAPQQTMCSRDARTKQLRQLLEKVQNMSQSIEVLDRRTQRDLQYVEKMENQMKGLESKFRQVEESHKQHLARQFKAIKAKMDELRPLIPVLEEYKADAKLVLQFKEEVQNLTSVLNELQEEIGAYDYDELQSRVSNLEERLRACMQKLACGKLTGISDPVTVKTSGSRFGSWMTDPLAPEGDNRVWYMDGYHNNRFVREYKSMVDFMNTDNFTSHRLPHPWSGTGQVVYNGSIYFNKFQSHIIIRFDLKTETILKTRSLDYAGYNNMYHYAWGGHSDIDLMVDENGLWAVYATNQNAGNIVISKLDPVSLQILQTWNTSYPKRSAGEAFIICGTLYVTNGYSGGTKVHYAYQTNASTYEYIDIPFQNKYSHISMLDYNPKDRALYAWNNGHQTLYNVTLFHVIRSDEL

In the case of “native GluA1-containing CP-AMPARs purified from rat cerebellum (from UniProt P19490 19-907; P19493 21-902) (complex)”, the stoichiometry N (receptors per NOE1 tetramer) was 2.
